Data taken from patent publication US20170334950.

Experiments:
[1] = target: FLT3 Artificial Substrate (FAS) candidate sequence F
[2] = target: FLT3 Artificial Substrate (FAS) candidate sequence C
[3] = target: FLT3 Artificial Substrate (FAS) candidate sequence G
[4] = target: FLT3 Artificial Substrate (FAS) candidate sequence E
[5] = target: FLT3 Artificial Substrate (FAS) candidate sequence B
[6] = target: FLT3 Artificial Substrate (FAS) candidate sequence A
[7] = target: FLT3 Artificial Substrate (FAS) candidate sequence H
[8] = target: FLT3 Artificial Substrate (FAS) candidate sequence D

Protein | phosphorylation, in vitro kinase assay [1] | phosphorylation, in vitro kinase assay [2] | phosphorylation, in vitro kinase assay [3] | phosphorylation, in vitro kinase assay [4] | phosphorylation, in vitro kinase assay [5] | phosphorylation, in vitro kinase assay [6] | phosphorylation, in vitro kinase assay [7] | phosphorylation, in vitro kinase assay [8] | phosphorylation, in vitro kinase assay, 60-minute incubation [6]
recombinant FLT3-D835Y mutant kinase (protein) HKYKKQFRYESQLQMVQVTGSSDNEYFYVDFREYEYDLKWEFPRENLEFGKVLGSGAFGKVMNATAYGISKTGVSIQVAVKMLKEKADSSEREALMSELKMMTQLGSHENIVNLLGACTLSGPIYLIFEYCCYGDLLNYLRSKREKFHRTWTEIFKEHNFSFYPTFQSHPNSSMPGSREVQIHPDSDQISGLHGNSFHSEDEIEYENQKRLEEEEDLNVLTFEDLLCFAYQVAKGMEFLEFKSCVHRDLAARNVLVTHGKVVKICDFGLARYIMSDSNYVVRGNARLPVKWMAPESLFEGIYTIKSDVWSYGILLWEIFSLGVNPYPGIPVDANFYKLIQNGFKMDQPFYATEEIYIIMQSCWAFDSRKRPSFPNLTSFLGCQLADAEEAMYQNVDGRVSECPHTYQNRRPFSREMDLGLLSPQAQVEDS | Sequences E, F and G were also phosphorylated by FLT3-D835Y but at lower levels than FL-Abltide | Candidate sequences A, B, C displayed higher levels of phosphorylation by FLT3-D835Y compared to FL-Abltide | Sequences E, F and G were also phosphorylated by FLT3-D835Y but at lower levels than FL-Abltide | Sequences E, F and G were also phosphorylated by FLT3-D835Y but at lower levels than FL-Abltide | Candidate sequences A, B, C displayed higher levels of phosphorylation by FLT3-D835Y compared to FL-Abltide | Candidate sequences A, B, C displayed higher levels of phosphorylation by FLT3-D835Y compared to FL-Abltide | sequence H showed no phosphorylation |  | 
recombinant wild type FLT3 kinase (FLT3-WT) (protein) HKYKKQFRYESQLQMVQVTGSSDNEYFYVDFREYEYDLKWEFPRENLEFGKVLGSGAFGKVMNATAYGISKTGVSIQVAVKMLKEKADSSEREALMSELKMMTQLGSHENIVNLLGACTLSGPIYLIFEYCCYGDLLNYLRSKREKFHRTWTEIFKEHNFSFYPTFQSHPNSSMPGSREVQIHPDSDQISGLHGNSFHSEDEIEYENQKRLEEEEDLNVLTFEDLLCFAYQVAKGMEFLEFKSCVHRDLAARNVLVTHGKVVKICDFGLARDIMSDSNYVVRGNARLPVKWMAPESLFEGIYTIKSDVWSYGILLWEIFSLGVNPYPGIPVDANFYKLIQNGFKMDQPFYATEEIYIIMQSCWAFDSRKRPSFPNLTSFLGCQLADAEEAMYQNVDGRVSECPHTYQNRRPFSREMDLGLLSPQAQVEDS | The remaining sequences did not get phosphorylated by FLT3-WT |  | The remaining sequences did not get phosphorylated by FLT3-WT | The remaining sequences did not get phosphorylated by FLT3-WT | The remaining sequences did not get phosphorylated by FLT3-WT |  | The remaining sequences did not get phosphorylated by FLT3-WT | The remaining sequences did not get phosphorylated by FLT3-WT | Sequence A showed a similar level of phosphorylation compared to Abltide over a 60-minute incubation
